In patent US20260193317A1, “COMBINATION THERAPY WITH ACTRIIB RECEPTOR VARIANTS AND GLP-1 AGONISTS” (35PHARMA Inc., priority 2023, published 2026):
Where two headings read alike, the source gives them in different places.

Columns and labels:
[1] = Co-formulation study of ectodomain-based traps with incretin mimetics (monomer content by SEC / RP-HPLC, integrity, stability); assay type: physicochemical; conditions: retatrutide formulations, 20 mM NaPO4, glycine, sucrose, histidine pH 7.5
Description: In each case, the following parameters were assessed: a) monomer content (size exclusion chromatography), b) activin A and GDF-8 neutralization (cell-based assays [CBAs]), c) activin A binding (ELISA), d) GLP-1 receptor binding (ELISA).
In each case, the following parameters were assessed: a) monomer content (size exclusion chromatography), b) activin A and GDF-8 neutralization (cell-based assays [CBAs]), and c) GLP-1 receptor activation (CBA).
Given that protein aggregation can be indicative of reduced conformational stability and decreased activity, Size-Exclusion Chromatography-High Performance Liquid Chromatography (SEC-HPLC) was used to determine the purity of each ActRIIB-ECD construct. This method measured the percentage of intact monomeric species as well as the presence of aggregates and/or degradation products.
In some instances, the method used to assess the purity of an agent was based on a reversed-phase high-performance liquid chromatography (RP-HPLC) setup with a C18 column. The mobile phases consisted of acetonitrile with 0.1% formic acid (organic phase) and water with 0.1% formic acid (aqueous phase). […] Formic acid anions form an ion pair with positively charged peptides, increasing their hydrophobicity and therefore their retention time. Detection was performed using a UV detector, at 280 nm.

[2] = target: GLP-1 receptor (GLP-1R) on CHO-K1 cells stably overexpressing GLP-1R (UniProt P43220); experiment: cell-based or functional assay
GLP-1 receptor (GLP-1R) on CHO-K1 cells stably overexpressing GLP-1R, sequence (P43220 24-463 limits assumed): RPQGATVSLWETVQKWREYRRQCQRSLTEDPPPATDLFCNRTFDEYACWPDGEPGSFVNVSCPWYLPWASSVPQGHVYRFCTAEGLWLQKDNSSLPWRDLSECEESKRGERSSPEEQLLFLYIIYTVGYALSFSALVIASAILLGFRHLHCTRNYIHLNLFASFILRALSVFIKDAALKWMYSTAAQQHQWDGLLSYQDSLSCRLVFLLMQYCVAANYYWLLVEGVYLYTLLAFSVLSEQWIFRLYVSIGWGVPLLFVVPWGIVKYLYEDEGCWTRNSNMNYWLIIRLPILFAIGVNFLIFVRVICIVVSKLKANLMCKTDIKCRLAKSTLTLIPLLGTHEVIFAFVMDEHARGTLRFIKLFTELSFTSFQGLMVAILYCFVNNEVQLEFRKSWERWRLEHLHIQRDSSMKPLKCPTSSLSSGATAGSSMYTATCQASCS

[3] = target: T1, GIP receptor (GIPR) on CHO-K1 cells stably overexpressing GIPR (UniProt P48546); experiment: cell-based or functional assay
T1 sequence (looked up): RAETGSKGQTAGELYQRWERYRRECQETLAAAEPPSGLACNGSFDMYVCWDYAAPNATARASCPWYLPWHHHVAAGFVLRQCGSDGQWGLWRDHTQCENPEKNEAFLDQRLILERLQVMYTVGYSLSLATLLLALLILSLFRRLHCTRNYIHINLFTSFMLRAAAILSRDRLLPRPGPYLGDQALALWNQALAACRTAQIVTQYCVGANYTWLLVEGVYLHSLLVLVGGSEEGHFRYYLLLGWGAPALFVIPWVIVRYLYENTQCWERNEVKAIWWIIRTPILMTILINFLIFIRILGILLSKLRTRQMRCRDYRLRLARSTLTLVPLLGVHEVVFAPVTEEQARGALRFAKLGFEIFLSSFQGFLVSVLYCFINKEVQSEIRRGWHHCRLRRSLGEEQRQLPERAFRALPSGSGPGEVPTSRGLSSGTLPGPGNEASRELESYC

[4] = target: GLP-1 receptor (GLP-1R) on CHO-K1 cells stably overexpressing GLP-1R (UniProt P43220); experiment: cell-based or functional assay; remark: listed apart in the source
[5] = target: T1, GIP receptor (GIPR) on CHO-K1 cells stably overexpressing GIPR; experiment: cell-based or functional assay; remark: listed apart in the source
[6] = system: DIO mice; experiment: Body composition in high fat diet mice, alone and in combination with incretin mimetics; assay type: in vivo; conditions: for Fat mass (% change from baseline) / Lean mass (% change from baseline): as E44, NMR
Description: Experiments were performed in vivo to investigate the potential for additive or synergistic effects between exemplary ActRIIB-ECD polypeptide constructs and incretin mimetics.

CC[C@H](C)[C@H](NC(=O)[C@H](Cc1ccccc1)NC(=O)[C@H](C)NC(=O)C(C)(C)NC(=O)[C@H](CCC(N)=O)NC(=O)[C@H](C)NC(=O)[C@H](CCCCNC(=O)COCCOCCNC(=O)CC[C@H](NC(=O)CCCCCCCCCCCCCCCCCCC(=O)O)C(=O)O)NC(=O)[C@H](CCCCN)NC(=O)[C@H](CC(=O)O)NC(=O)[C@H](CC(C)C)NC(=O)[C@](C)(CC(C)C)NC(=O)[C@@H](NC(=O)[C@H](CO)NC(=O)[C@H](Cc1ccc(O)cc1)NC(=O)[C@H](CC(=O)O)NC(=O)[C@H](CO)NC(=O)[C@@H](NC(=O)[C@H](Cc1ccccc1)NC(=O)[C@@H](NC(=O)CNC(=O)[C@H](CCC(N)=O)NC(=O)C(C)(C)NC(=O)[C@@H](N)Cc1ccc(O)cc1)[C@@H](C)O)[C@@H](C)O)[C@@H](C)CC)C(=O)N[C@@H](CCC(=O)O)C(=O)N[C@@H](Cc1ccc(O)cc1)C(=O)N[C@@H](CC(C)C)C(=O)N[C@@H](CC(C)C)C(=O)N[C@@H](CCC(=O)O)C(=O)NCC(=O)NCC(=O)N1CCC[C@H]1C(=O)N[C@@H](CO)C(=O)N[C@@H](CO)C(=O)NCC(=O)N[C@@H](C)C(=O)N1CCC[C@H]1C(=O)N1CCC[C@H]1C(=O)N1CCC[C@H]1C(=O)N[C@@H](CO)C(N)=O [Retatrutide alone]
Monomer Content (%) Retatrutide ([1]; D 0): 100%
Monomer Content (%) Retatrutide ([1]; D 7, 2-8° C.): 100%
Monomer Content (%) Retatrutide ([1]; D 7, RT): 100%
Monomer Content (%) Retatrutide ([1]; D 14, 2-8° C.): 100%
Monomer Content (%) Retatrutide ([1]; D 14, RT): 100%
Monomer Content (%) Retatrutide ([1]; D 28, 2-8° C.): 100%
Monomer Content (%) Retatrutide ([1]; D 28, RT): 100%
Monomer Content (%) Retatrutide ([1]; D 56, 2-8° C.): 100%
Monomer Content (%) Retatrutide ([1]; D 56, RT): 100%

retatrutide (peptide)
CBA potency GLP-1R; P1372 + retatrutide; D 0 [2]: 3 pM
CBA potency GLP-1R; P1372 + retatrutide; D 7 2-8°C [2]: 2 pM
CBA potency GLP-1R; P1372 + retatrutide; D 7 RT [2]: 1.8 pM
CBA potency GLP-1R; P1372 + retatrutide; D 14 2-8°C [2]: 4.1 pM
CBA potency GLP-1R; P1372 + retatrutide; D 14 RT [2]: 3.3 pM
CBA potency GLP-1R; P1372 + retatrutide; D 28 2-8°C [2]: 2.9 pM
CBA potency GLP-1R; P1372 + retatrutide; D 28 RT [2]: 2.1 pM
CBA potency GLP-1R; P1372 + retatrutide; D 56 2-8°C [2]: 2.3 pM
CBA potency GLP-1R; P1372 + retatrutide; D 56 RT [2]: 2.3 pM
CBA potency GLP-1R; Retatrutide alone; D 0 [2]: 3 pM
CBA potency GLP-1R; Retatrutide alone; D 7 2-8°C [2]: 1.8 pM
CBA potency GLP-1R; Retatrutide alone; D 7 RT [2]: 2.5 pM
CBA potency GLP-1R; Retatrutide alone; D 14 2-8°C [2]: 3.1 pM
CBA potency GLP-1R; Retatrutide alone; D 14 RT [2]: 5.6 pM
CBA potency GLP-1R; Retatrutide alone; D 28 2-8°C [2]: 2.7 pM
CBA potency GLP-1R; Retatrutide alone; D 28 RT [2]: 2.7 pM
CBA potency GLP-1R; Retatrutide alone; D 56 2-8°C [2]: 2.1 pM
CBA potency GLP-1R; Retatrutide alone; D 56 RT [2]: 1.9 pM
CBA potency GIPR; P1372 + retatrutide; D 0 [3]: 0.94 pM
CBA potency GIPR; P1372 + retatrutide; D 7 2-8°C [3]: 0.98 pM
CBA potency GIPR; P1372 + retatrutide; D 7 RT [3]: 0.98 pM
CBA potency GIPR; P1372 + retatrutide; D 14 2-8°C [3]: 1.1 pM
CBA potency GIPR; P1372 + retatrutide; D 14 RT [3]: 0.76 pM
CBA potency GIPR; P1372 + retatrutide; D 28 2-8°C [3]: 1 pM
CBA potency GIPR; P1372 + retatrutide; D 28 RT [3]: 0.84 pM
CBA potency GIPR; P1372 + retatrutide; D 56 2-8°C [3]: 0.85 pM
CBA potency GIPR; P1372 + retatrutide; D 56 RT [3]: 0.75 pM
CBA potency GIPR; Retatrutide alone; D 0 [3]: 0.74 pM
CBA potency GIPR; Retatrutide alone; D 7 2-8°C [3]: 1 pM
CBA potency GIPR; Retatrutide alone; D 7 RT [3]: 0.87 pM
CBA potency GIPR; Retatrutide alone; D 14 2-8°C [3]: 1 pM
CBA potency GIPR; Retatrutide alone; D 14 RT [3]: 1.2 pM
CBA potency GIPR; Retatrutide alone; D 28 2-8°C [3]: 1.1 pM
CBA potency GIPR; Retatrutide alone; D 28 RT [3]: 1.1 pM
CBA potency GIPR; Retatrutide alone; D 56 2-8°C [3]: 0.84 pM
CBA potency GIPR; Retatrutide alone; D 56 RT [3]: 0.82 pM

tirzepatide (peptide)
CBA potency GLP-1R; P1372 + tirzepatide; D 0 [2]: 9.3 pM
CBA potency GLP-1R; P1372 + tirzepatide; D 7 2-8°C [2]: 13 pM
CBA potency GLP-1R; P1372 + tirzepatide; D 7 RT [2]: 12 pM
CBA potency GLP-1R; P1372 + tirzepatide; D 14 RT [2]: 13 pM
CBA potency GLP-1R; P1372 + tirzepatide; D 28 2-8°C [2]: 14 pM
CBA potency GLP-1R; P1372 + tirzepatide; D 28 RT [2]: 13 pM
CBA potency GLP-1R; P1372 + tirzepatide; D 56 2-8°C [2]: 7.4 pM
CBA potency GLP-1R; P1372 + tirzepatide; D 56 RT [2]: 7.7 pM
CBA potency GLP-1R; Tirzepatide alone; D 0 [2]: 11 pM
CBA potency GLP-1R; Tirzepatide alone; D 7 2-8°C [2]: 11 pM
CBA potency GLP-1R; Tirzepatide alone; D 7 RT [2]: 13 pM
CBA potency GLP-1R; Tirzepatide alone; D 14 2-8°C [2]: 17 pM
CBA potency GLP-1R; Tirzepatide alone; D 14 RT [2]: 23 pM
CBA potency GLP-1R; Tirzepatide alone; D 28 2-8°C [2]: 14 pM
CBA potency GLP-1R; Tirzepatide alone; D 28 RT [2]: 12 pM
CBA potency GLP-1R; Tirzepatide alone; D 56 2-8°C [2]: 7 pM
CBA potency GLP-1R; Tirzepatide alone; D 56 RT [2]: 6.7 pM
CBA potency GIPR; P1372 + tirzepatide; D 0 [3]: 1.5 pM
CBA potency GIPR; P1372 + tirzepatide; D 7 2-8°C [3]: 1.7 pM
CBA potency GIPR; P1372 + tirzepatide; D 7 RT [3]: 2.1 pM
CBA potency GIPR; P1372 + tirzepatide; D 14 2-8°C [3]: 1.5 pM
CBA potency GIPR; P1372 + tirzepatide; D 14 RT [3]: 1.8 pM
CBA potency GIPR; P1372 + tirzepatide; D 28 2-8°C [3]: 2 pM
CBA potency GIPR; P1372 + tirzepatide; D 28 RT [3]: 2.8 pM
CBA potency GIPR; P1372 + tirzepatide; D 56 2-8°C [3]: 1.6 pM
CBA potency GIPR; P1372 + tirzepatide; D 56 RT [3]: 1.7 pM
CBA potency GIPR; Tirzepatide alone; D 0 [3]: 1.6 pM
CBA potency GIPR; Tirzepatide alone; D 7 2-8°C [3]: 2.8 pM
CBA potency GIPR; Tirzepatide alone; D 7 RT [3]: 2.8 pM
CBA potency GIPR; Tirzepatide alone; D 14 2-8°C [3]: 2.2 pM
CBA potency GIPR; Tirzepatide alone; D 14 RT [3]: 1.7 pM
CBA potency GIPR; Tirzepatide alone; D 28 2-8°C [3]: 2.2 pM
CBA potency GIPR; Tirzepatide alone; D 28 RT [3]: 2.1 pM
CBA potency GIPR; Tirzepatide alone; D 56 2-8°C [3]: 1.5 pM
CBA potency GIPR; Tirzepatide alone; D 56 RT [3]: 1.5 pM
CBA potency GLP-1R; P1372 + tirzepatide; D 0 [4]: 5.3 pM
CBA potency GLP-1R; P1372 + tirzepatide; D 7 2-8°C [4]: 3.2 pM
CBA potency GLP-1R; P1372 + tirzepatide; D 7 RT [4]: 3.3 pM
CBA potency GLP-1R; P1372 + tirzepatide; D 14 2-8°C [4]: 2.9 pM
CBA potency GLP-1R; P1372 + tirzepatide; D 14 RT [4]: 2.8 pM
CBA potency GLP-1R; P1372 + tirzepatide; D 28 2-8°C [4]: 5.5 pM
CBA potency GLP-1R; P1372 + tirzepatide; D 28 RT [4]: 5.4 pM
CBA potency GLP-1R; P1372 + tirzepatide; D 56 2-8°C [4]: 9.3 pM
CBA potency GLP-1R; P1372 + tirzepatide; D 56 RT [4]: 10 pM
CBA potency GLP-1R; Tirzepatide alone; D 0 [4]: 4.3 pM
CBA potency GLP-1R; Tirzepatide alone; D 7 2-8°C [4]: 4.6 pM
CBA potency GLP-1R; Tirzepatide alone; D 7 RT [4]: 3.7 pM
CBA potency GLP-1R; Tirzepatide alone; D 14 2-8°C [4]: 2.4 pM
CBA potency GLP-1R; Tirzepatide alone; D 14 RT [4]: 3.3 pM
CBA potency GLP-1R; Tirzepatide alone; D 28 2-8°C [4]: 5.6 pM
CBA potency GLP-1R; Tirzepatide alone; D 28 RT [4]: 5 pM
CBA potency GLP-1R; Tirzepatide alone; D 56 2-8°C [4]: 8.3 pM
CBA potency GLP-1R; Tirzepatide alone; D 56 RT [4]: 8.4 pM
CBA potency GIPR; P1372 + tirzepatide; D 0 [5]: 1.3 pM
CBA potency GIPR; P1372 + tirzepatide; D 7 2-8°C [5]: 1 pM
CBA potency GIPR; P1372 + tirzepatide; D 7 RT [5]: 0.99 pM
CBA potency GIPR; P1372 + tirzepatide; D 14 2-8°C [5]: 0.98 pM
CBA potency GIPR; P1372 + tirzepatide; D 14 RT [5]: 1 pM
CBA potency GIPR; P1372 + tirzepatide; D 28 2-8°C [5]: 1.3 pM
CBA potency GIPR; P1372 + tirzepatide; D 28 RT [5]: 1.5 pM
CBA potency GIPR; P1372 + tirzepatide; D 56 2-8°C [5]: 1.9 pM
CBA potency GIPR; Tirzepatide alone; D 0 [5]: 1.5 pM
CBA potency GIPR; Tirzepatide alone; D 7 2-8°C [5]: 1.1 pM
CBA potency GIPR; Tirzepatide alone; D 7 RT [5]: 1.2 pM
CBA potency GIPR; Tirzepatide alone; D 14 2-8°C [5]: 0.84 pM
CBA potency GIPR; Tirzepatide alone; D 14 RT [5]: 0.82 pM
CBA potency GIPR; Tirzepatide alone; D 28 2-8°C [5]: 1.6 pM
CBA potency GIPR; Tirzepatide alone; D 28 RT [5]: 1.4 pM
CBA potency GIPR; Tirzepatide alone; D 56 2-8°C [5]: 1.9 pM
CBA potency GIPR; Tirzepatide alone; D 56 RT [5]: 2 pM

tirzepatide [reference compound]
Body weight (% change from baseline) ([6]; DIO mice, 21 days s.c., P1307 20 mg/kg weekly, P1229 40 mg/kg twice weekly, semaglutide 40 μg/kg daily, tirzepatide 45 μg/kg daily, alone or combined): −26.8%
visceral, epididymal, pericardial, peri-renal, and retroperitoneal white adipose tissue weights ([6]; DIO mice, D21): significantly decreased all white adipose tissue weights
gastrocnemius and tibialis anterior weights ([6]; DIO mice, D21, P1229 with or without caloric restriction): no significant effect on muscle weights
Fat mass (% change from baseline) [6]: −46.2%
Lean mass (% change from baseline) [6]: −14.5%
Fat mass (% change from baseline) ([6]; listed as tirzepatide): −46.2%
Lean mass (% change from baseline) ([6]; listed as tirzepatide): −14.5%
